Experimental data reported in US20210283168A1, “BETA GLUCAN AND CD40 AGONIST COMBINATION IMMUNOTHERAPY” (HiberCell, Inc., priority 2018, published 2021).
Entries after “also recorded” stand apart in the source; their conditions may differ.

B1: ADC-1013 (antibody, chains of the INN, looked up, V domains shown)
VH: EVQLLESGGGLVQPGGSLRLSCAASGFTFSTYGMHWVRQAPGKGLEWLSYISGGSSYIFYADSVRGRFTISRDNSENALYLQMNSLRAEDTAVYYCARILRGGSGMDLWGQGTLVTVSS
VL: QSVLTQPPSASGTPGQRVTISCTGSSSNIGAGYNVYWYQQLPGTAPKLLIYGNINRPSGVPDRFSGSKSGTSASLAISGLRSEDEADYYCAAWDKSISGLVFGGGTKLTVL

Tests used:
[1] = target: CD40 ligand interaction with CD40 (Homo sapiens, UniProt P25942); details: cited from earlier work
Chain of CD40 ligand interaction with CD40 (P25942 21-277): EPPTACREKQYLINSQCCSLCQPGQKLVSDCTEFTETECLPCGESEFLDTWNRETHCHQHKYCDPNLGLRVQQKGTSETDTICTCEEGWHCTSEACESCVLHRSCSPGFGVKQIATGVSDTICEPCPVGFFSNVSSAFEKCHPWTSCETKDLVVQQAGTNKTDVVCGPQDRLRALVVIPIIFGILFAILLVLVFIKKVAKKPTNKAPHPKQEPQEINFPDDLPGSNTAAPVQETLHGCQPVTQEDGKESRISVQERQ

FcR = details: cited from earlier work
CD40 [2] = target: T1, CD40 (Homo sapiens, UniProt P25942); details: cited from earlier work; for dependence on crosslinking for activity: CD40 stimulation
T1 sequence (P25942 21-277): as above

CD40 [3] = target: T1, CD40; details: binding to CD40; ADC-1013: even under acidic conditions (pH 5.4); read-out: binding affinity (Kd); cited from earlier work
[4] = intravenous infusion, more than 400 human subjects; cited from earlier work
[5] = system: KPC-derived PDAC cell line (7940B, P9); experiment: subcutaneous KPC-derived PDAC tumor model: tumor growth and overall survival; details: for anti-tumor activity / impact on tumor growth (in words): mouse, in vivo
B cell lymphoma lines = details: cited from earlier work
B cell = details: cited from earlier work
FcgRIIIa = FcgRIIIa (Homo sapiens, UniProt P08637); details: non-fucosylated, derived from dacetuzumab; cited from earlier work
Chain of FcgRIIIa (P08637 17-254): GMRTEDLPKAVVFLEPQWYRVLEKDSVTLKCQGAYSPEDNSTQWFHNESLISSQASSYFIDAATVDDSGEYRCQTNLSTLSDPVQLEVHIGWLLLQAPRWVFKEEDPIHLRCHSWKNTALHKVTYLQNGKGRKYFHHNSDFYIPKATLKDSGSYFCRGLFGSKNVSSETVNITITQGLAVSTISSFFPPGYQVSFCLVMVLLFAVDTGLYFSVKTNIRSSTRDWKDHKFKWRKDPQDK

Molecule	ability to block CD40 ligand binding [1]	dependence on crosslinking for activity (CD40 [2])	Kd (CD40 [3])	anti-tumor activity / impact on tumor growth (in words) [5]	agonist activity (CD40 [2])	other results
CP-870,893: anti-CD40 IgG2 antibody (Pfizer and VLST)	does not block CD40 ligand interaction with CD40	can mediate CD40 stimulation in the absence of cross-linking	348 pM	–	–	FcR binding (FcR): poor
β(1,6)-[poly-(1,3)-D-glucopyranosyl]-poly-β(1,3)-D-glucopyranose [IMPRIME PGG]	–	–	–	limited activity as monotherapy; also recorded: minimal activity	–	safety of systemic administration [4]: administered safely; delay in tumor outgrowth / anti-tumor activity, previous experiment ([5]; previous experiment (data not shown)): 3 of 9; delay in tumor outgrowth (mice with delayed tumor growth) ([5]; single dose day 0: FGK45 0.1 mg i.p., IMPRIME PGG 1.2 mg i.v., gemcitabine 120 mg/kg day -2): 1 of 10
Nc1ccn([C@@H]2O[C@H](CO)[C@@H](O)C2(F)F)c(=O)n1 [Gemcitabine, reference compound]	–	–	–	no significant impact on tumor growth	–	–
Dacetuzumab: humanized IgG1 antibody recognizing CD40 (Seattle Genetics)	enhances CD40 ligand binding to CD40	–	1000 pM	–	partial agonist	anti-proliferative and pro-apoptotic properties against B cell lymphoma lines (B cell lymphoma lines): potent anti-proliferative and pro-apoptotic properties; activity in stimulating B cell proliferation (B cell): weak activity
SEA-CD40: non-fucosylated humanized IgG1 anti-CD40 antibody derived from dacetuzumab (Seattle Genetics)	–	–	1000 pM	–	improved agonist activity	binding to FcgRIIIa (FcgRIIIa): enhanced binding
B1	–	activity dependent on FcR binding and crosslinking	10 pM	–	–	–
